Source: patent publication US20210388087A1 (Chugai, published 2021)

T1: Human CD3eg linker (human)
T1 construct: Single chain: epsilon and gamma subunits of human CD3 joined by a 29-mer linker, Flag-tag at the C-terminus; also called recombinant human CD3
T1 chain: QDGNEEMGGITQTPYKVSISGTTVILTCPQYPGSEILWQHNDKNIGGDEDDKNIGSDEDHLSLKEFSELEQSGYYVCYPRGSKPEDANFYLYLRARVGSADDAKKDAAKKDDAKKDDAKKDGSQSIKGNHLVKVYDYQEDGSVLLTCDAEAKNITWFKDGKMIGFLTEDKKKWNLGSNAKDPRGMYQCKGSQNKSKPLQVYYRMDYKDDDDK

B1: H183/L072 VH F29I (antibody, name in Kabat numbering, V domains shown)
VH: QVQLVESGGGLVQPGRSLRLSCAASGFTISNAWMHWVRQAPGKGLEWVAQIKDKGNAYAAYYAPSVKGRFTISRDDSKNSIYLQMNSLKTEDTAVYYCHYVHYASASTVLPAFGVDAWGQGTTVTVSS
VL: DIVMTQSPLSLPVTPGEPASISCQASQELVHMNRNTYLHWYQQKPGQAPRLLIYKVSNRFPGVPDRFSGSGSGTDFTLKISRVEAEDVGVYYCAQGTSVPFTFGQGTKLEIK
B2: H183/L072 VH F29P (antibody, name in Kabat numbering, V domains shown)
VH: QVQLVESGGGLVQPGRSLRLSCAASGFTPSNAWMHWVRQAPGKGLEWVAQIKDKGNAYAAYYAPSVKGRFTISRDDSKNSIYLQMNSLKTEDTAVYYCHYVHYASASTVLPAFGVDAWGQGTTVTVSS
VL: DIVMTQSPLSLPVTPGEPASISCQASQELVHMNRNTYLHWYQQKPGQAPRLLIYKVSNRFPGVPDRFSGSGSGTDFTLKISRVEAEDVGVYYCAQGTSVPFTFGQGTKLEIK
B3: H183/L072 VH F29R (antibody, name in Kabat numbering, V domains shown)
VH: QVQLVESGGGLVQPGRSLRLSCAASGFTRSNAWMHWVRQAPGKGLEWVAQIKDKGNAYAAYYAPSVKGRFTISRDDSKNSIYLQMNSLKTEDTAVYYCHYVHYASASTVLPAFGVDAWGQGTTVTVSS
VL: DIVMTQSPLSLPVTPGEPASISCQASQELVHMNRNTYLHWYQQKPGQAPRLLIYKVSNRFPGVPDRFSGSGSGTDFTLKISRVEAEDVGVYYCAQGTSVPFTFGQGTKLEIK
B4: H183/L072 VH F29Q (antibody, name in Kabat numbering, V domains shown)
VH: QVQLVESGGGLVQPGRSLRLSCAASGFTQSNAWMHWVRQAPGKGLEWVAQIKDKGNAYAAYYAPSVKGRFTISRDDSKNSIYLQMNSLKTEDTAVYYCHYVHYASASTVLPAFGVDAWGQGTTVTVSS
VL: DIVMTQSPLSLPVTPGEPASISCQASQELVHMNRNTYLHWYQQKPGQAPRLLIYKVSNRFPGVPDRFSGSGSGTDFTLKISRVEAEDVGVYYCAQGTSVPFTFGQGTKLEIK
B5: H183/L072 VH F29K (antibody, name in Kabat numbering, V domains shown)
VH: QVQLVESGGGLVQPGRSLRLSCAASGFTKSNAWMHWVRQAPGKGLEWVAQIKDKGNAYAAYYAPSVKGRFTISRDDSKNSIYLQMNSLKTEDTAVYYCHYVHYASASTVLPAFGVDAWGQGTTVTVSS
VL: DIVMTQSPLSLPVTPGEPASISCQASQELVHMNRNTYLHWYQQKPGQAPRLLIYKVSNRFPGVPDRFSGSGSGTDFTLKISRVEAEDVGVYYCAQGTSVPFTFGQGTKLEIK
B6: H183/L072 VH F29M (antibody, name in Kabat numbering, V domains shown)
VH: QVQLVESGGGLVQPGRSLRLSCAASGFTMSNAWMHWVRQAPGKGLEWVAQIKDKGNAYAAYYAPSVKGRFTISRDDSKNSIYLQMNSLKTEDTAVYYCHYVHYASASTVLPAFGVDAWGQGTTVTVSS
VL: DIVMTQSPLSLPVTPGEPASISCQASQELVHMNRNTYLHWYQQKPGQAPRLLIYKVSNRFPGVPDRFSGSGSGTDFTLKISRVEAEDVGVYYCAQGTSVPFTFGQGTKLEIK
B7: H183/L072 VH F29N (antibody, name in Kabat numbering, V domains shown)
VH: QVQLVESGGGLVQPGRSLRLSCAASGFTNSNAWMHWVRQAPGKGLEWVAQIKDKGNAYAAYYAPSVKGRFTISRDDSKNSIYLQMNSLKTEDTAVYYCHYVHYASASTVLPAFGVDAWGQGTTVTVSS
VL: DIVMTQSPLSLPVTPGEPASISCQASQELVHMNRNTYLHWYQQKPGQAPRLLIYKVSNRFPGVPDRFSGSGSGTDFTLKISRVEAEDVGVYYCAQGTSVPFTFGQGTKLEIK
B8: H183/L072 VH F29L (antibody, name in Kabat numbering, V domains shown)
VH: QVQLVESGGGLVQPGRSLRLSCAASGFTLSNAWMHWVRQAPGKGLEWVAQIKDKGNAYAAYYAPSVKGRFTISRDDSKNSIYLQMNSLKTEDTAVYYCHYVHYASASTVLPAFGVDAWGQGTTVTVSS
VL: DIVMTQSPLSLPVTPGEPASISCQASQELVHMNRNTYLHWYQQKPGQAPRLLIYKVSNRFPGVPDRFSGSGSGTDFTLKISRVEAEDVGVYYCAQGTSVPFTFGQGTKLEIK

Molecular target: T1, Human CD3eg linker
Experiment: Biacore SPR, vs template H183/L072
B1 was tested, and the “fold change of affinity” value was 0.3 fold. B2 was tested, and the “fold change of affinity” value was 0.2 fold. In the case of B3, the “fold change of affinity” value is reported as 0 fold. In the case of B4, the “fold change of affinity” value is reported as 0.2 fold. B5 was tested, and the “fold change of affinity” value was 0.1 fold. For B6, the “fold change of affinity” value was 0.4 fold. In the case of B7, the “fold change of affinity” value is reported as 0 fold. For B8, the “fold change of affinity” value was 0.4 fold.
